Measured values from PMC7104376 (Nature structural & molecular biology, 2020).
Numbering of substitutions follows the chain as printed.

T1: C34, subunit of S. cerevisiae RNA polymerase III (S. cerevisiae, UniProt P32910 1-317)
T1 sequence: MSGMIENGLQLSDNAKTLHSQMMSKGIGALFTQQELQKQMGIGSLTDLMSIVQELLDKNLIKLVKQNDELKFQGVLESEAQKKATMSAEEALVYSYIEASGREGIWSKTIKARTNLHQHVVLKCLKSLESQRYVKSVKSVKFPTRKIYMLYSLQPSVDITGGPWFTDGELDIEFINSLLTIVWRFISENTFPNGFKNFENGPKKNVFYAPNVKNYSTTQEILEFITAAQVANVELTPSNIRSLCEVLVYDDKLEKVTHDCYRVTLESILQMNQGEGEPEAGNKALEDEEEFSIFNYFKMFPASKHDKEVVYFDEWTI

T2: C160, subunit of S. cerevisiae RNA polymerase III (S. cerevisiae, UniProt P04051 1-1460)
T2 sequence: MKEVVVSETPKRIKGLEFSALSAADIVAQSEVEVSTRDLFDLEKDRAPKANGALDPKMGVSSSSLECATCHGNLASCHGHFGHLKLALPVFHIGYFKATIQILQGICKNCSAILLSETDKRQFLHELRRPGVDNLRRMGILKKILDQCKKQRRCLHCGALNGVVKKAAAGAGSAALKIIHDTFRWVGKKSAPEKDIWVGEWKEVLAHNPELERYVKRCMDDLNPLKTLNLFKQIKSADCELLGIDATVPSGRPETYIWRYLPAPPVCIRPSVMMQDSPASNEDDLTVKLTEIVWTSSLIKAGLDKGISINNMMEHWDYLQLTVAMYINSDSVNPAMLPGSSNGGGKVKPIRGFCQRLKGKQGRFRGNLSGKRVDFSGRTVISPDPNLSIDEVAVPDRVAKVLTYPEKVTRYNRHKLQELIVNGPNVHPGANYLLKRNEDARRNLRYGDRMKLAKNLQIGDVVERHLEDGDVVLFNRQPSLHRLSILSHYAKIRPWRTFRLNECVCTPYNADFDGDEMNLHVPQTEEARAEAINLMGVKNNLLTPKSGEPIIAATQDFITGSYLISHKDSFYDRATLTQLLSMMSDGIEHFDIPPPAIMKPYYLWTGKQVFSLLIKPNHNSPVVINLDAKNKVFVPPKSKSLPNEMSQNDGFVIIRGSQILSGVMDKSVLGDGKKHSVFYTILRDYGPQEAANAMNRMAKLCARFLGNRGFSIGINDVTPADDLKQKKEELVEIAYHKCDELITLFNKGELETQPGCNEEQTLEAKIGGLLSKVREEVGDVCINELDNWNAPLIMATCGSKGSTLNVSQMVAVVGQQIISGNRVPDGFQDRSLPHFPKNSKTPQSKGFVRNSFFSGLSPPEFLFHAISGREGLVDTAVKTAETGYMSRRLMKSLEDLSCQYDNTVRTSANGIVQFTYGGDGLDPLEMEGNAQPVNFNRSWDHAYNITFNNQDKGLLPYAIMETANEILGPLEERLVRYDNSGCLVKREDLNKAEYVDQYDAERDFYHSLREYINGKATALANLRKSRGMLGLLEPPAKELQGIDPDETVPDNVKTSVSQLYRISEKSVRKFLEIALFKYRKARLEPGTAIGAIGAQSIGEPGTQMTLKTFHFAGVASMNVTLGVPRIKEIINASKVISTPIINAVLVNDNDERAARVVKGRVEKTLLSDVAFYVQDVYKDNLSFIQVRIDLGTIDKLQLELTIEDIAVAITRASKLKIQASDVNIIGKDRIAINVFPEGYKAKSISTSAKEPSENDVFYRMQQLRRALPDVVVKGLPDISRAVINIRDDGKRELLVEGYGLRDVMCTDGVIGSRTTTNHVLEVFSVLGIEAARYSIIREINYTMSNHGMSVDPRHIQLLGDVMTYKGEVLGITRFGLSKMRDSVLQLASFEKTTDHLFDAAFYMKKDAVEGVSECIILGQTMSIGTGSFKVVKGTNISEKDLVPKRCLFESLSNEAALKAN

T3: Maf1-id T33E/T34E (S. cerevisiae, UniProt P41910 1-395, Δ64-194 | T33E | T34E)
T3 sequence (looked up): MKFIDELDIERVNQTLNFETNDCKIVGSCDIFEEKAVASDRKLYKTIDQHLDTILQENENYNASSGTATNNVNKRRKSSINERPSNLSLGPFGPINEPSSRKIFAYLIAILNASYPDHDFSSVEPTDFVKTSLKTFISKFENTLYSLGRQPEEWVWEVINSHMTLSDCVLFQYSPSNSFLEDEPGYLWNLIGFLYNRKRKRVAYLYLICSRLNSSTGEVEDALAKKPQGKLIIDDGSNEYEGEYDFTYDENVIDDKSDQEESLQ

T4: Maf1-id L318S/W319S (S. cerevisiae, UniProt P41910 1-395, Δ64-194 | L318S | W319S)
T4 sequence (looked up): T3 sequence (looked up) with E33T, E34T, L187S, W188S

T5: Maf1-id D248A/D250A (S. cerevisiae, UniProt P41910 1-395, Δ64-194 | D248A | D250A)
T5 sequence (looked up): T3 sequence (looked up) with E33T, E34T, D117A, D119A

B1: Maf1-id (S. cerevisiae Maf1 lacking the internal non-conserved region, Δ64-194) (natural protein, UniProt P41910 1-395, looked up)
chain: T3 sequence (looked up) with E33T, E34T
B2: His-tagged C34 1-156 (the two N-terminal WH domains of C34) (domain or fragment, S. cerevisiae, UniProt P32910 1-156, looked up)
chain: MSGMIENGLQLSDNAKTLHSQMMSKGIGALFTQQELQKQMGIGSLTDLMSIVQELLDKNLIKLVKQNDELKFQGVLESEAQKKATMSAEEALVYSYIEASGREGIWSKTIKARTNLHQHVVLKCLKSLESQRYVKSVKSVKFPTRKIYMLYSLQPS

Assays:
[1] = target: T1, C34, subunit of S. cerevisiae RNA …; assay: cryo-EM structure
[2] = target: T2, C160, subunit of S. cerevisiae RNA …; assay: cryo-EM structure
[3] = target: T3, Maf1-id T33E/T34E; assay: pull-down
[4] = target: B1; assay: pull-down
[5] = target: T4, Maf1-id L318S/W319S; assay: pull-down
[6] = target: T5, Maf1-id D248A/D250A; assay: pull-down

Measured: binding result

B1
binds: [1] | [2]

B2
binds: [3] | [4] | [5] | [6]
